Measured values as given in paper PMC7432317, “Structural Analysis of the SANT/Myb Domain of FLASH and YARP Proteins and Their Complex with the C-Terminal Fragment of NPAT by NMR Spectroscopy and Computer Simulations” (International Journal of Molecular Sciences, 2020).

Molecular target: T1, C-terminal fragment of FLICE-associated huge protein (FLASH), residues 1923-1982 (human, UniProt Q9UKL3 1923-1982)
T1 construct: FLASH (FLICE-associated huge protein), residues 1923-1982; residue 1982 is the C-terminal amino acid of the protein; Uniformly 15N- or 13C,15N-labelled for NMR; also called FLASH fragment; SANT/Myb domain of FLASH; source: E. coli BL21 (DE3), pET28a, minimal M9 media, purified (nickel beads, SEC Superdex 75)
T1 sequence (looked up): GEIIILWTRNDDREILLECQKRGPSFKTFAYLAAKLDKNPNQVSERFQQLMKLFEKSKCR
Test: NMR titration; 1H-15N HSQC of 15N-labelled FLASH fragment (300 uM) with step-wise addition of the NPAT peptide (150 uM, two fold molar excess of FLASH analysed; equimolar mixtures precipitated); 25 mM TRIS-HCl, 200 mM KCl, pH 6.2, 50 mM Arg+Glu, 40 mM TCEP, 298 K
Settings: both partners purified

B1: NPAT peptide, the last 31 residues of NPAT (1397-1427) (peptide)
peptide: KKKKIKKKKLPSSFPAGMDVDKFLLSLHYDE
notes: Free N-terminus, carboxyl at C-terminus; also called C-terminal NPAT peptide; source: synthetic peptide (Fmoc solid phase synthesis, RP-HPLC purified)
binding result: binds
